T1: human Abl SH2 domain (human, UniProt P00519 112-232, limits assumed)
T1 construct: domain: SH2 domain; poly-histidine tagged in selection; tag cleaved for SPR and crystals; also called Ab1SH2; SH2 domain of Abl kinase
T1 sequence (looked up): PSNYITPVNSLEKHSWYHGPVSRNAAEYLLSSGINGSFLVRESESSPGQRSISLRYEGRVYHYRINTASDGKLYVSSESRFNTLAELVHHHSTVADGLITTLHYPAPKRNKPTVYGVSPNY

B1: ySMB-91 (designed binder)
chain: VSSVPTKLEVVAATPTSLLISWDASYSSSSVSYYRITYGETGGNSPVQEFTVPGSSSTATISGLSPGVDYTITVYAYYYSYYYYYSYSPISINYRT
notes: variable loops only; library YS
B2: ySMB-64 (designed binder)
chain: VSSVPTKLEVVAATPTSLLISWDASQFSGVSYYRITYGETGGNSPVQEFTVPGSYSTATISGLSPGVDYTITVYAYYHEHWGYYSYSPISINYRT
notes: variable loops only; library YSGW
B3: ySMB-67 (designed binder)
chain: VSSVPTKLEVVAATPTSLLISWDAGSFGFHDPVYYYRITYGETGGNSPVQEFTVPGSSSTATISGLSPGVDYTITVYAYYQYMDYYYSYSPISINYRT
notes: as for B2
B4: ySMB-74 (designed binder)
chain: VSSVPTKLEVVAATPTSLLISWDASSSSVSYYRITYGETGGNSPVQEFTVPGSSSTATISGLSPGVDYTITVYAYYYFYDYWMAYSPISINYRT
notes: as for B2
B5: ySMB-71 (designed binder)
chain: VSSVPTKLEVVAATPTSLLISWDASSSSVSYYRITYGETGGNSPVQEFTVPGSSSTATISGLSPGVDYTITVYAYYVGDGYYWSESPISINYRT
notes: as for B2
B6: ySMB-69 (designed binder)
chain: VSSVPTKLEVVAATPTSLLISWDASSSSVSYYRITYGETGGNSPVQEFTVPGSSSTATISGLSPGVDYTITVYAYYSTYWYDWSGSPISINYRT
notes: as for B2
B7: ySMB-90 (designed binder)
chain: VSSVPTKLEVVAATPTSLLISWDASSSSVSYYRITYGETGGNSPVQEFTVPGSSSTATISGLSPGVDYTITVYAYYYSYYYSYSYSPISINYRT
notes: as for B1
B8: ySMB-4 (designed binder)
chain: VSSVPTKLEVVAATPTSLLISWDAPWAYSQSVAYYRITYGETGGNSPVQEFTVPGSSSTATISGLSPGVDYTITVYAYYGTPWGEGWYSWSPISINYRT
notes: as for B2
B9: ySMB-5 (designed binder)
chain: VSSVPTKLEVVAATPTSLLISWDAPANSVSYYRITYGETGGNSPVQEFTVPGSSSTATISGLSPGVDYTITVYAYEWYGWGWTYSPISINYRT
notes: as for B2
B10: ySMB-17 (designed binder)
chain: VSSVPTKLEVVAATPTSLLISWDASSSSVSYYRITYGETGGNSPVQEFTVPGSSSTATISGLSPGVDYTITVYAYIQYYDLYYASPISINYRT
notes: as for B2
B11: ySMB-20 (designed binder)
chain: VSSVPTKLEVVAATPTSLLISWDAGYYMNYYMVDYYRITYGETGGNSPVQEFTVPGSSSTATISGLSPGVDYTITVYAYWYDEYGQYWWSESPISINYRT
notes: as for B2
B12: ySMB-8 (designed binder)
chain: VSSVPTKLEVVAATPTSLLISWDAYVGYGSSVAYYRITYGETGGNSPVQEFTVPGSSSTATISGLSPGVDYTITVYAYYYEGDDLYSSMSPISINYRT
notes: as for B2
B13: ySMB-7 (designed binder)
chain: VSSVPTKLEVVAATPTSLLISWDASSSSVSYYRITYGETGGNSPVQEFTVPGSSSTATISGLSPGVDYTITVYAYQEWSYGWSSESPISINYRT
notes: as for B2
B14: ySMB-6 (designed binder)
chain: VSSVPTKLEVVAATPTSLLISWDASSSSVSYYRITYGETGGNSPVQEFTVPSYSSTATISGLSPGVDYTITVYAYWEFEYGYWSYSPISINYRT
notes: as for B2
B15: SEQ ID NO 26 (designed binder)
chain: VSSVPTKLEVVAATPTSLLISWDAPAVTVDHYVITYGETGGVWYGYQEFTVPGSKSTATISGLSPGVDYTITVYAMTSYFQEYWSPISINYRT
B16: SEQ ID NO 24 (designed binder)
chain: VSSVPTKLEVVAATPTSLLISWDAPAVTVDLYIITYGETGSYHGWQTFTVPGSKSTATISGLSPGVDYTITVYADSSTWPYWYYSSPISINYRT
B17: SEQ ID NO 23 (designed binder)
chain: VSSVPTKLEVVAATPTSLLISWDAPAVTVDFYVITYGETGSFSPPQEFTVPGSKSTATISGLSPGVDYTITVYAMMWGWEYYDYNISPISINYRT
B18: SEQ ID NO 27 (designed binder)
chain: VSSVPTKLEVVAATPTSLLISWDAPAVTVDFYVITYGETGSFSPPQEFTVPGSKSTATISGLSPGVDYTITVYAMMWGWEYYDYNISPISINYRT
B19: SEQ ID NO 25 (designed binder)
chain: VSSVPTKLEVVAATPTSLLISWDAPAVTVDFYVITYGETGSFSPPQEFTVPGSKSTATISGLSPGVDYTITVYAMMWGWEYYDYNISPISINYRT
B20: Clone# 1 (ySUMO Monobodies) (designed binder)
chain: VSSVPTKLEVVAATPTSLLISWDASSSSVSYYRITYGETGGNSPVQEFTVPGSSSTATISGLSPGVDYTITVYAYYSYYDIYYAVSPSSINYRT
notes: recovered against ySUMO from the SUMO-targeted library
B21: Clone# 2 (ySUMO Monobodies) (designed binder)
chain: VSSVPTKLEVVAATPTSLLISWDASSSSVSYYRITYGETGGNSPVQEFTVPGSSSTATISGLSPGVDYTITVYAYYSEEFFDYAVSPSSINYRT
notes: as for B20
B22: Clone# 4 (ySUMO Monobodies) (designed binder)
chain: VSSVPTKLEVVAATPTSLLISWDASSSSVSYYRITYGETGGNSPVQEFTVPGSSSTATISGLSPGVDYTITVYAYYSDDFLDFAFSPSSINYRT
notes: as for B20
B23: Clone# 3 (ySUMO Monobodies) (designed binder)
chain: VSSVPTKLEVVAATPTSLLISWDASSSSVSYYRITYGETGGNSPVQEFTVPGSSSTATISGLSPGVDYTITVFAYYSEEFFDYAYSPSSINYRT
notes: as for B20
B24: Clone# 5 (ySUMO Monobodies) (designed binder)
chain: VSSVPTKLEVVAATPTSLLISWDASSSSVSYYRITYGETGGNSPVQEFTVPGSSSTATISGLSPGVDYTITVYAYYSYYNIFFADSPSSINYRT
notes: as for B20
B25: ySMB-ST1 (designed binder)
chain: VSSVPTKLEVVAATPTSLLISWDASSSSVSYYRITYGETGGNSPVQEFTVPGSSSTATISGLSPGVDYTITVYAYYSYYDIYYAVSPSSINYRT
B26: ySMB-ST5 (designed binder)
chain: VSSVPTKLEVVAATPTSLLISWDASSSSVSYYRITYGETGGNSPVQEFTVPGSSSTATISGLSPGVDYTITVYAYYSYYNIFFADSPSSINYRT
B27: ySMB-ST3 (designed binder)
chain: VSSVPTKLEVVAATPTSLLISWDASSSSVSYYRITYGETGGNSPVQEFTVPGSSSTATISGLSPGVDYTITVFAYYSEEFFDYAYSPSSINYRT
B28: ySMB-ST2 (designed binder)
chain: VSSVPTKLEVVAATPTSLLISWDASSSSVSYYRITYGETGGNSPVQEFTVPGSSSTATISGLSPGVDYTITVYAYYSEEFFDYAVSPSSINYRT
B29: ySMB-ST4 (designed binder)
chain: VSSVPTKLEVVAATPTSLLISWDASSSSVSYYRITYGETGGNSPVQEFTVPGSSSTATISGLSPGVDYTITVYAYYSDDFLDFAFSPSSINYRT
B30: SEQ ID NO 82 (designed binder)
chain: VSSVPTKLEVVAATPTSLLISWDAPAVTVDFYVITYGETGGNSPVQEFTVPGSKSTATISGLSPGVDYTITVYANWAYSYRYSPISINYRT

One assay deals with T2, yeast small ubiquitin-like modifier protein (yeast, UniProt Q12306 3-98 = SUMO).
T2 construct: GST fusion in most phage ELISAs, His-tagged or tag-cleaved elsewhere; also called ySUMO; yeast SUMO
T2 sequence (Q12306 3-98 limits assumed): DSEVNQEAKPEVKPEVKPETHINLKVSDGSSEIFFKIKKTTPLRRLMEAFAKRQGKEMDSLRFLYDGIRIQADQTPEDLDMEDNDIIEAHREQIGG
As to the kind of experiment: SPR; column 'Estimated Kd (nM)' [Continued]. The method, boiled down:
(§1)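 Surface plasmon resonance on a Biacore 2000: purified His-tagged molecules were captured on an NTA surface to give a theoretical maximum target response of 100-200 RU. Target at varying concentrations was flowed at 30 μL/min and the binding signal recorded. Estimated Kd came either from kinetic fitting in BIAevaluation software or from equilibrium responses at multiple concentrations fit to a 1:1 saturation binding curve.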
What is called Kd is a measure of binding affinity in units of concentration. As to B1, the Kd is 1000 nM.
As for B2, the Kd was 280 nM.
As to B3, the Kd is 1000 nM.
On the same count and under the same terms, to B4 belongs 544 nM.
As to B5, the Kd is 230 nM.
On to B6, for which the Kd is 138 nM.
As to B7, the Kd is 320 nM.

The next assay concerns the target T2, yeast small ubiquitin-like modifier …. As to the kind of experiment: SPR; column 'Estimated Kd (nM)'. The method, boiled down:
as §1
As to B8, the Kd is 210 nM.
As to B9, the Kd is 100 nM.
With B10, the Kd was 40 nM.
The same measure, in the same setting: to B11 belongs 66 nM; to B12, 350 nM.
For B13, the dissociation constant Kd is 800 nM.
The same measure, in the same setting: to B14 belongs 166 nM.

Another assay concerns the target human ubiquitin (human, UniProt P0CG48 1-76). As to the kind of experiment: phage display selection hit, BL1 library.
In the case of B15, the binding result is reported as “binds”.
Turning to B16, the binding result is on record as “binds”.
B17: the binding result is “binds”.
Take B18: the binding result was “binds”.
Regarding B19, the binding result is recorded as “binds”.

A further assay deals with T2, yeast small ubiquitin-like modifier …. As to the kind of experiment: SPR (monobody on the chip via His-tag, target flowed); estimated Kd. How it is done:
(§2) Cradle molecules purified as described above were immobilized via His-tag to an NTA surface using a Biacore™ 2000 instrument so that the theoretical maximum response (Rₘₐₓ) from target binding was 100-200 RU. Target protein at varying concentrations was then flowed over the surface at a flow rate of 30 μL/min and the binding signal recorded. Fitting of kinetic traces was carried out using the BIAevaluation software. For equilibrium experiments, the equilibrium binding response was recorded for multiple target concentrations and fit to a simple 1:1 saturation binding curve.
Take B20: the Kd was 39 nM.
The same measure, in the same setting: to B21 belongs 194 nM; to B22, 3300 nM; to B23, 435 nM.
Regarding B24, the Kd was 112 nM.

For a further assay the target is unchanged. The experiment in a line: SPR. The protocol:
as §2
B8 displayed a dissociation constant (Kd) of 210 nM.
On to B9, for which the affinity, expressed as Kd, was 100 nM.
B12 had a Kd of 350 nM.
B13: the Kd is 800 nM.
For the molecule B14, the Kd came to 166 nM.

The next assay shares this target. The experiment in a line: SPR (Biacore 2000), monobody immobilised via His-tag on NTA surface, ySUMO flowed over it. The protocol: as §2
In general terms: In SPR one partner is held on a chip, and binding of the other changes the refractive index at the surface.
As for B25, the Kd was found to be 39 nM.
B26 yielded a Kd of 112 nM.
On the same count and under the same terms, to B27 belongs 435 nM.
The molecule B28 returned a Kd of 194 nM.
As for B29, binding was put at a Kd of 3300 nM.

The next assay has as its target T1, human Abl SH2 domain. As to the kind of experiment: phage display selection hit, BL2 library.
Take B30: the binding result is on record as “binds”.

Values taken from patent publication US20140057807A1 (UNIVERSITY OF CHICAGO, published 2014).
